This assay deals with taxol-stabilized microtubules (control, undigested, with E-hooks) (porcine) (UniProt P02550).
Sequence of taxol-stabilized microtubules (control, undigested, with E-hooks) (porcine) (P02550 whole entry, chain 1 of 2): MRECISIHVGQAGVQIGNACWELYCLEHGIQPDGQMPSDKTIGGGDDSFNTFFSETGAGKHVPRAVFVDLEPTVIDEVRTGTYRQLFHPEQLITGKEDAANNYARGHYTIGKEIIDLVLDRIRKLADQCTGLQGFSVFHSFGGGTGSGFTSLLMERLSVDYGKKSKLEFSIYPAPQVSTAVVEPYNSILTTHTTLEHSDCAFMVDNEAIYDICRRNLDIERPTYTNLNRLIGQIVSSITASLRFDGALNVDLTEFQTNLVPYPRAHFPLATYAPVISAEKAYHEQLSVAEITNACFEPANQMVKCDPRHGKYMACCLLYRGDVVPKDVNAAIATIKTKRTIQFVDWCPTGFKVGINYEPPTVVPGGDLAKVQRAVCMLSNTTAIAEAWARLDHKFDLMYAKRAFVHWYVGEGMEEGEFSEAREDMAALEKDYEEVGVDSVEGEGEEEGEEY
Sequence of taxol-stabilized microtubules (control, undigested, with E-hooks) (porcine) (chain, as listed by the source, chain 2 of 2): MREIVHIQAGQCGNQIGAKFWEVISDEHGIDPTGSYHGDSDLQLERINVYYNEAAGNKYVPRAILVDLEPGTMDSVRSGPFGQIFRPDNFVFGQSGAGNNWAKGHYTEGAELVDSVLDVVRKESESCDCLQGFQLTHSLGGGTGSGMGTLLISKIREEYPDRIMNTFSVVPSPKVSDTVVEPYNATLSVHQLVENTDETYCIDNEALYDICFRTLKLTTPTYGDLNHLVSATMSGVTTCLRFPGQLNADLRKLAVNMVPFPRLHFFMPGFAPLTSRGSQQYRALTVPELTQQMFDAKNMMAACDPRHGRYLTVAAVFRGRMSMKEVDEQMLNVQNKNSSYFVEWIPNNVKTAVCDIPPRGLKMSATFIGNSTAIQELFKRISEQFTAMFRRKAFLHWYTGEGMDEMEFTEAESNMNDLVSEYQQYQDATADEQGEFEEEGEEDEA

“GST–dynein331, artificially dimerized (via glutathione S-transferase) dynein motor domain fragment, P36022 1-4092” had a K m(MT) of the microtubule-stimulated ATPase activity of GST–dynein331 (0–2 µM microtubules), with 200 nM She1 of 0.04 µM and a K m(MT) of the microtubule-stimulated ATPase activity of GST–dynein331 (0–2 µM microtubules), without She1 of 0.1 µM.

The values are drawn from article PMC5732302.
